Test results published in article PMC10631681, “The structural basis of mRNA recognition and binding by yeast pseudouridine synthase PUS1”.
Where a chain is given by its changes, count along the chain named.

Tests used:
[1] = target: T1, PUS1 wild type (tagless, crystal) (Saccharomyces cerevisiae, UniProt Q12211 1-544); test: X-ray crystallography (2.9 A); EMSA: 100 nM R263 with 100 nM-1 uM PUS1 in 100 ul under PUS1 activity assay conditions (buffer not in the material), 90 min, SYBR Gold stain; crystals: 7R9G 0.05 M ammonium sulfate, 0.05 M Bis-Tris pH 6.0, 26% pentaerythritol ethoxylate, 4 C; 7R9F 0.2 M K/Na tartrate, 18% PEG 3350, 25 C; conditions: protein: recombinant; tags: none; chain copies: 2; self-duplex of 2 copies, same duplex as R263
T1 sequence: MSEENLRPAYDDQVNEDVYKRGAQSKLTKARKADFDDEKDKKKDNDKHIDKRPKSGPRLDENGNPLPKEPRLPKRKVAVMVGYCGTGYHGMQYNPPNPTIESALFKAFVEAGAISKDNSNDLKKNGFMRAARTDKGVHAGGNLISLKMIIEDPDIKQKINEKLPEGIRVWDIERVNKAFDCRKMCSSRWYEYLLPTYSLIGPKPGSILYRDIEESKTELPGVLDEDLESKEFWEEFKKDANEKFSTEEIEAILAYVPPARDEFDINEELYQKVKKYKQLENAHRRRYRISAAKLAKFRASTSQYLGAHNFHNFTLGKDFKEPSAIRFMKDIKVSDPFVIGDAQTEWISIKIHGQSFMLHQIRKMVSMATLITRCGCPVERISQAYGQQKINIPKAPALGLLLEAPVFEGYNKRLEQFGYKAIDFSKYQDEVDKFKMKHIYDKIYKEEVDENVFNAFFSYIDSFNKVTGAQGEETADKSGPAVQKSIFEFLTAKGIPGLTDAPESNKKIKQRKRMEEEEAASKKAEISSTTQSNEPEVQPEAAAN

[2] = target: T2, PUS1 D134A (His-tagged) (Saccharomyces cerevisiae, UniProt Q12211 1-544, D134A); test: EMSA; 100 nM RNA, increasing protein; EMSA: 100 nM R263 with 100 nM-1 uM PUS1 in 100 ul under PUS1 activity assay conditions (buffer not in the material), 90 min, SYBR Gold stain; crystals: 7R9G 0.05 M ammonium sulfate, 0.05 M Bis-Tris pH 6.0, 26% pentaerythritol ethoxylate, 4 C; 7R9F 0.2 M K/Na tartrate, 18% PEG 3350, 25 C; conditions: protein: recombinant; tags: N-terminal 6xHis; predicted short stem-loop; strand state in EMSA not determined
T2 sequence: T1 sequence with D134A

[3] = target: T3, PUS1 wild type (His-tagged) (Saccharomyces cerevisiae, UniProt Q12211 1-544); test: as above; conditions: protein: recombinant; tags: N-terminal 6xHis; predicted short stem-loop; strand state in EMSA not determined
T3 sequence: T1 sequence

[4] = target: T4, PUS1 D134A (tagless, crystal) (Saccharomyces cerevisiae, UniProt Q12211 1-544, D134A); test: X-ray crystallography (2.4 A); sulfate ion near RNA 5' end; EMSA: 100 nM R263 with 100 nM-1 uM PUS1 in 100 ul under PUS1 activity assay conditions (buffer not in the material), 90 min, SYBR Gold stain; crystals: 7R9G 0.05 M ammonium sulfate, 0.05 M Bis-Tris pH 6.0, 26% pentaerythritol ethoxylate, 4 C; 7R9F 0.2 M K/Na tartrate, 18% PEG 3350, 25 C; conditions: protein: recombinant; tags: none; chain copies: 2; self-duplex of 2 copies; positions 2-10 paired with non-Watson-Crick pairs (two central G:G reverse Hoogsteen); 3' ends disordered
T4 sequence: T1 sequence with D134A

B1: R340 duplex (crystal) (dsRNA)
RNA 1: UAAUCGGGAUUCCGGAUA
RNA 2: UAAUCGGGAUUCCGGAUA
modifications: 5-fluorouracil at position 1 (written as U)
B1: binds [1].

AAAUCGGGAUUCCGGAUA (ssRNA) [R263 (EMSA)]: binds [2]; binds [3].

B2: R263 duplex (crystal) (dsRNA)
RNA 1: AAAUCGGGAUUCCGGAUA
RNA 2: AAAUCGGGAUUCCGGAUA
B2: binds [4].
